Test results reported in patent publication US20150098945A1 (Daiichi Sankyo, published 2015).

Biological target: T1, human ROBO2 (pCI-hROBO2-transfected HEK293 cells) (human)
T1 chain: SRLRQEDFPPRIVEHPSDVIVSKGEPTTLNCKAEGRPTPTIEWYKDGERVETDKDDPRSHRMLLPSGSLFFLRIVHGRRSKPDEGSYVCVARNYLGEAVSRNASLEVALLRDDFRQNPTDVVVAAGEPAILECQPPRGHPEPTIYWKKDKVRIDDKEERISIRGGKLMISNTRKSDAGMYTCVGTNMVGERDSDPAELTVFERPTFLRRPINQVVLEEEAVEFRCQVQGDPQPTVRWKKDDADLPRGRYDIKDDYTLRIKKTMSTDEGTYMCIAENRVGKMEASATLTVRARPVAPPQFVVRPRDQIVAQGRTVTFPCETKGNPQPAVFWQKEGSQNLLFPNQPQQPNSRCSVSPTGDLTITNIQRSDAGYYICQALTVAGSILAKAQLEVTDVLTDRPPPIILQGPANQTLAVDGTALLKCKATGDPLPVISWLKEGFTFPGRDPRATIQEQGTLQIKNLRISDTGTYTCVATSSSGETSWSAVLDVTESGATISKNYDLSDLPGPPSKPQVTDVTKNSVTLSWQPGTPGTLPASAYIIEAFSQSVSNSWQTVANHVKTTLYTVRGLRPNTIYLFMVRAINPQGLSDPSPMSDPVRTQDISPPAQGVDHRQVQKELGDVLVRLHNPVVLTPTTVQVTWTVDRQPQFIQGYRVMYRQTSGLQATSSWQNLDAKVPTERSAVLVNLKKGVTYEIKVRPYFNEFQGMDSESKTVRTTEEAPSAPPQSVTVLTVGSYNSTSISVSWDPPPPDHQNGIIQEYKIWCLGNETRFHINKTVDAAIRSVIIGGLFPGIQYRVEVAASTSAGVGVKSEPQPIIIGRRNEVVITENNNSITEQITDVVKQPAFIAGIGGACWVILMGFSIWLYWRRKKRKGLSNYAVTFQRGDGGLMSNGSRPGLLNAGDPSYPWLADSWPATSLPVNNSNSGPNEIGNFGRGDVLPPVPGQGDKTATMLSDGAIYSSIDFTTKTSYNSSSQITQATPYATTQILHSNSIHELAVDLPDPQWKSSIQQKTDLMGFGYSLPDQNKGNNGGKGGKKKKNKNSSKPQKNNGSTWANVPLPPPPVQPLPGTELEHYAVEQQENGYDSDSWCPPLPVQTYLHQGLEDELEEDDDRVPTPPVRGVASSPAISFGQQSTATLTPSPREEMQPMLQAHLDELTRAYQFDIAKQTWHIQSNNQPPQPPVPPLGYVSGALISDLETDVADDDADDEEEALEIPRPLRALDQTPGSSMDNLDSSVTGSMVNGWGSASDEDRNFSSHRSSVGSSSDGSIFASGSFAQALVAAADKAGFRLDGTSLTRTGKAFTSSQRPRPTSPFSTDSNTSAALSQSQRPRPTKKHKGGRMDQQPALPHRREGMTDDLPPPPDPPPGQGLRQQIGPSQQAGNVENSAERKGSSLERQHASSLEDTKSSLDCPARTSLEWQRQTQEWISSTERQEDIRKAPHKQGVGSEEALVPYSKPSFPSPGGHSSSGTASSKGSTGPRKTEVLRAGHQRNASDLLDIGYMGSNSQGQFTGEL
Test: flow cytometry, HEK293 cells transfected with pCI-hROBO2, anti-mouse IgG FITC; control histogram IgG
Experimental: HEK293 cells were inoculated at a concentration of 1.2×10⁶ cells/dish or 1.5×10⁶ cells/dish to a 60-mm dish (manufactured by Corning Inc.) and cultured overnight in a DMEM medium containing 10% FBS at 37° C. under 5% CO₂ conditions. On the next day, the HEK293 cells were transfected with pCI-hROBO4, pCI-FLAG-hROBO1, pCI-hROBO2, or pCI-hROBO3 using FuGENE6 Transfection Reagent and further cultured overnight at 37° C. under 5% CO₂ conditions. On the next day, the expression vector-transfected cells were treated with TrypLE Express (manufactured by Life Technologies Corp.), washed with PBS containing 5% FBS, and then suspended in PBS containing 5% FBS. The obtained cell suspension was used in flow cytometry analysis.
Each cell suspension prepared in 4)-4-1 was centrifuged, and the supernatant was removed. […] Data was analyzed using Flowjo. The histogram of FITC fluorescence intensity was prepared. The antibody was determined to bind in a specific manner when the histogram of MAb1 was shifted to a stronger fluorescence intensity region compared with the histogram of the negative control Mouse IgG1 or Mouse IgG2a. […]

B1: anti-ROBO4 mouse monoclonal antibody MAb1 (antibody, mouse IgG1, V domains shown)
VH: EVQLVESGGGLVKPGGSLKLSCAASGFTFSTYAMSWVRQTPEKRLEWVATISNGGTYTYYPDSVKGRFTISRDNAENTLYLQMSSLRSEDTAMYFCARLIYYDYLDYWGHGTTLTVSS
VL: DAVMTQTPLSLPVSLGDQASISCRSSQSLENSNGNTYLNWYFQKPGQSPQLLIYRVSNRFSGVLDRFSGSGSGTDFTLKISRVEAEDFGVYFCLQVTHVPWTFGGGTKLEIKR
notes: Mouse IgG1 (gamma1), kappa light chain, purified from hybridoma supernatant; also called parent antibody MAb1
B1: no binding (tested: 10 µg/mL).
